The values that follow come from patent US20150132254A1 (MIT, published 2015).

T1: soluble murine CD25 (His-tagged recombinant mouse IL-2Rα/CD25, R&D Systems) (mouse, UniProt P01590 22-236, limits assumed)
T1 construct: Bought reagent, described only as soluble and His-tagged; also called soluble CD25; mouse CD25
T1 sequence (looked up): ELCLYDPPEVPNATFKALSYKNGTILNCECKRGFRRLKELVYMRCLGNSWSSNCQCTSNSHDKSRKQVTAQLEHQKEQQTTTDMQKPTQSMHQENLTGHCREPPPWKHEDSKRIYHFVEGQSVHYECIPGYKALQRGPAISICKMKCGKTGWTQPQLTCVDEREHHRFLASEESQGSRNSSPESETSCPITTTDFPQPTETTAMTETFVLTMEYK

B1: mIL-2 QQ 6.2-10 (yeast-displayed) (ligand)
chain: APTSSSTSSSTAEAQQQQQQQQQQQQHLEQLLMDLQELLSRMEDHRNLRLPRMLTFKFYLPEQATELEDLQCLEDELEPLRQVLDLTQSKSFQLEDAENFISNIRVTVVKLKGSDNTFECQFDDEPATVVDFLRRWIAFCQSIISTSPQ
notes: also called reversion mutant
B2: mIL-2 QQ 6.2-13 (yeast-displayed) (ligand)
chain: B1 chain with E68K
notes: Selective-reversion mutant of a library 6.2 clone; also called reversion mutant
B3: mIL-2 QQ 6.2-4 (yeast-displayed) (ligand)
chain: B1 chain with H45S, E62K, D131G
notes: as for B2
B4: mIL-2 QQ 6.2-11 (yeast-displayed) (ligand)
chain: APTSSSTSSSTAEAQQQQQQQQQHLEQLLMDLQELLSRMEDSRNLRLPRMLTFKFYLPEQATELKDLQCLEDELEPLRQVLDLTQSKSFQLEDAENFISNIRVTVVKLKGSDNTFECQFDDEPATVVDFLRRWIAFCQSIISTSPQ
notes: as for B2
B5: mIL-2 QQ 6.2-8 (yeast-displayed) (ligand)
chain: APTSSSTSSSTAEAQQQQQQQQHLEQLLMDLQELLSRMEDHRNLRLPRMLTFKFYLPKQATELEDLQCLEDELEPLRQVLDLTQSKSFQLEDAENFISNIRVTVVKLKGSDNTFECQFDDEPATVVDFLRRWIAFCQSIISTSPR
notes: as for B2
B6: wild-type murine IL-2 (yeast-displayed) (ligand)
chain: B1 chain with D44N, H45Y, R49K, E62K, E68K, E78G, Q82H, P126S
notes: Aga2p fusion with HA and c-myc tags; also called mIL-2; mouse IL-2
B7: mouse IL-2 E76A (yeast-displayed) (ligand)
chain: B1 chain with D44N, H45Y, R49K, E62K, E68K, E76A, E78G, Q82H, P126S
notes: also called E76A IL-2
B8: mouse IL-2 E76F (yeast-displayed) (ligand)
chain: B1 chain with D44N, H45Y, R49K, E62K, E68K, E76F, E78G, Q82H, P126S
notes: also called E76 mutant
B9: mouse IL-2 E76R (yeast-displayed) (ligand)
chain: B1 chain with D44N, H45Y, R49K, E62K, E68K, E76R, E78G, Q82H, P126S
notes: also called E76 mutant
B10: mouse IL-2 E76G (yeast-displayed) (ligand)
chain: B1 chain with D44N, H45Y, R49K, E62K, E68K, E76G, E78G, Q82H, P126S
notes: also called E76G IL-2
B11: D265AFc/IL-2 (monovalent mouse IgG2a D265A Fc / wild-type mouse IL-2 heterodimer) (Fc fusion)
chain 1: EPRVPITQNPCPPLKECPPCAAPDLLGGPSVFIFPPKIKDVLMISLSPMVTCVVVAVSEDDPDVQISWFVNNVEVHTAQTQTHREDYNSTLRVVSALPIQHQDWMSGKEFKCKVNNRALPSPIEKTISKPRGPVRAPQVYVLPPPAEEMTKKEFSLTCMITGFLPAEIAVDWTSNGRTEQNYKNTATVLDSDGSYFMYSKLRVQKSTWERGSLFACSVVHEGLHNHLTTKTISRSLGKGGGSAPTSSSTSSSTAEAQQQQQQQQQQQQHLEQLLMDLQELLSRMENYRNLKLPRMLTFKFYLPKQATELKDLQCLEDELGPLRHVLDLTQSKSFQLEDAENFISNIRVTVVKLKGSDNTFECQFDDESATVVDFLRRWIAFCQSIISTSPQHHHHHH
chain 2: EPRVPITQNPCPPLKECPPCAAPDLLGGPSVFIFPPKIKDVLMISLSPMVTCVVVAVSEDDPDVQISWFVNNVEVHTAQTQTHREDYNSTLRVVSALPIQHQDWMSGKEFKCKVNNRALPSPIEKTISKPRGPVRAPQVYVLPPPAEEMTKKEFSLTCMITGFLPAEIAVDWTSNGRTEQNYKNTATVLDSDGSYFMYSKLRVQKSTWERGSLFACSVVHEGLHNHLTTKTISRSLGKGGGSDYKDDDDK
notes: also called D265A Fc/wt mIL-2

Positions count from the first letter of the chain named. In names and notes the source's numbering stands.

The first assay has as its target T1, soluble murine CD25 (His-tagged …). The experiment in a line: yeast surface display, titration with soluble murine CD25. How it is done: The equilibrium dissociation constant of any particular clone was determined essentially as described (75). […] For picomolar affinity mutants of library 6.2, non-displaying EBY100 cells were spiked in at 90:10 to facilitate pelleting the low numbers of displaying cells. The equilibrium dissociation constant Kd was determined by fitting CD25 concentration and flow cytometry fluorescence data to the monovalent binding isotherm: […]
As to B1, the binding result was “binds”.

B2: the binding result is listed as “binds”.

As for B3, the binding result is reported as “binds”.

B4: the binding result was “binds”.

Regarding B5, the binding result is “binds”.

A further assay has the same target. The experiment in a line: yeast surface display, flow cytometry. How it is done:
EBY100 yeast harboring each of these clones were grown and induced as described (Chao et al. Nat Protocols 2006; 1(2):755-768). CD25 binding capacity was determined by labeling induced yeast with 50 nM soluble murine CD25 (R&D Systems). Proper protein folding was determined by labeling yeast displaying IL-2 variants before and after thermal denaturation with anti-mouse IL-2 antibodies. […] Anti-mouse IL-2 antibodies used were S4B6 (gift of Jianzhu Chen Lab, MIT), JES6-1A12, and JES6-5H4 (eBioscience).
As to B6, the binding result is “binds”.

For the molecule B7, the binding result is on record as “no binding (tested: 50 nM)”.

B8: the binding result is listed as “no binding (tested: 5 or 50 nM soluble CD25)”.

In the case of B9, the binding result was “no binding (tested: 5 or 50 nM soluble CD25)”.

On to B10, for which the binding result is “no binding (tested: 50 nM)”.

For the next assay the target is unchanged. The experiment in a line: not stated (legend of the schematic FIG. 5).
In the case of B11, the Kd was about 50 nM.

Usually Kd stands for a measure of binding affinity in units of concentration.
